Data as given in the DeepSol protein solubility set.

Assay: soluble on expression in E. coli; label from the status in PepcDB or PDB records

| Sequence | soluble on expression in E. coli |
| --- | --- |
| MSLDSGTLGTPPPEQGPTPPTTLPDVPAPVIPSASVTSAASDFLAALHPPVTVPDPAPPPPPAPAAGNPPDTVTGDSVLQRILRGPTGPGTTSLAPAVRYGRQPGPEAPASAPPAAGRAVPGLYHHPVPEPDPVRVEEVSRRIKRWAEDEVQLYPEEWEGQFDGFSVGRYMVGCHPDAPTVDHLMLATRLMVAENAVDDCYCEDHGGSPVGLGGRLLLAHTAIDHFHSTAEYTPTWQASLAADAPRRAYDSAMGYFVRAATPSQSDRYRHDMARLHLGYLAEGAWAQTGHVPEVWEYLAMRQFNNFRPCPTITDTVGGYELPADLHARPDMQRVIALAGNATTIVNDLYSYTKELNSPGRHLNLPVVIAEREQLCERDAYLKAVEVHNELQHSFEAAAADLAEACPLPPVLRFLRGVAAWVDGNHDWHRTNTYRYSLPDFWEGHHHHHH | soluble |
| MDNTYRDEKVNGCGPGDVNLMLELLEKGEKIGGKSADQSSLFVALCRSVGIPAREVFGIRVLPSSFSEGLSIKPGSKDITKAQHCRAEFWAGEWIPVDPADVTKLILKEKLPRNHPRVNFARRYFFGNWDPHWIAYNWGRDFVLEPPQRVKPLNLFGYPYAEVKGEPLNWLEPKSFVYRIKLVRA | not soluble |
| SDLVGVASPEPGTAAAWGPSKCPWAIPQNTISCSLADVMSEQLAKELQLEEEAAVFPEVAVAEGPFITGENIDTSSDLMLAQMLQMEYDREYDAQLRREEKKFNGDSKVSISFENYRKVHPYEDSDSSEDEVDWQDTRDDPYRPAKPVPTPKKGFIGKGKDITTKHDEVVCGRKNTARMENFAPEFQVGDGIGMDLKLSNHVFNALKQHAYSEERRSARLHEKKEHSTAEKAVDPKTRLLMYKMVNSGMLETITGCISTGKESVVFHAYGGSMEDEKEDSKVIPTECAIKVFKTTLNEFKNRDKYIKDDFRFKDRFSKLNPRKIIRMWAEKEMHNLARMQRAGIPCPTVVLLKKHILVMSFIGHDQVPAPKLKEVKLNSEEMKEAYYQTLHLMRQLYHECTLVHADLSEYNMLWHAGKVWLIDVSQSVEPTHPHGLEFLFRDCRNVSQKGGVKEALSERELFNAVSGLNITADNEADFLAEIEALEKMNEDHVQKNGRKAASFLKDDGDPPLLYDE | soluble |
| MAHHHHHHMGTLEAQTQGPGSMPIKSSLLIVVACALLDQDNRVLLTQRPEGKSLAGLWEFPGGKVEQGETPEASLIRELEEELGVHVQADNLFPLTFASHGYETFHLLMPLYFCSHYKGVAQGREGQNLKWIFINDLDKYPMPEADKPLVQVLKNFFI | soluble |
| MAHHHHHHMIHEMCFQELSDSILPAHNGEVALMLATGSPFTDAMTTAAPQQDVWGSSLFSLPELGTDLHSEVSQQNIEKSGSNLNCELQTASHVCNLAPVTFKEEQNKTRITESNTTFGPTPSMHCLSFGSVNAQSNIPSIANSTPNPLACSMVCTSQAPQLSFSSLMSIGNTTVPANSSSTTNGLAYQQASPVATVSNGIPAFFTTAQNGGNVVMFAPSNSQQTLCIPTPVPTMIPYYVIAPPQHTVEVNGTMAYSSLSTAPQSMPPVMCGPWTTNTGSVVGSGAPTPVSVSSASGVMPQTFVTSVTTKPSQPVSFSFPSGDSNQNSASASSIIPLCADGSGNQKAPPRGSPPSYDSLRIQITKRRQPSGRQRSGTNVHGSLQGICSYYSYNLSAALKQYEHPDFHVAKPVEQVLPVFVQMFPCELRDRTIIVLNRVVEATCGPDIATVVGIEPRSETSFITLIRTNDVWHLIHKLRCRVLMDRHGFWYAENMEQYLRLKEYCESVRRLPQQIRHFQTDGLPCMPLVVELSRSVNAASVTSLPAPPSFDEVAPIATMERHGRVATLTGSNEDGSSSPRETGEVINAAAVPLPSGVGRV | not soluble |
| MEVSTSYCTPAVNFKYGSFQDSDVSMREDDLFRMGSYNSQGYYADGTHLDGSIGEEDETSSGSNDQHMDFEEDDFDMESSMTEDLVDEDEEEEDEEDNDEWTNQKRTDNQNSVAYYAAMEMLRIRFPFQSIAIRISDFCCLQEKDLLNDTMIDFYLNHIVEHVLPDSNGSNVTVLPSIFWHNLSLRQHAFDSEDEKMMSDEQKMDLKFGDLHDFVADFDLQDFDYIVVPVNEWEHWSLAVICHPFTAQARTVIFDSQLTADLNNLQNMATLIESFMKYSYEKRTGNAMPFPLPCILPQRMPQQTNNFDCGIFIAEFARRFLLSPPKDPATISLCFHPLATLL | not soluble |
| MMSETGFIDVKIFPQRLLKPETAEKLLNRIYELEGIVRVLVHGPSIPDRVYYGPARGTEVNHSDRRKITVRGEEFELRVKVGEIIVGMLPETLEEKMETIEEILDEVLPCSYKVFIGAFTKKDITISDYLKYGLKFEEKIDPRVIGMVDPSSRMKDTVVNIKLEHHHHHH | soluble |
| ALLITKKCINCDMCEPECPNEAISMGDHIYEINSDKCTECVGHYETPTCQKVCPIPNTIVKDPAHVETEEQLWDKFVLMHHADKI | soluble |
| MTQLPPAIFLMGPTAAGKTDLAIELTKVLPCELISVDSALVYRGMDIGTAKPSRELLAQFPHRLIDILDPAESYSAADFRTDALAAMADITARGKIPLLVGGTMLYYKALLEGLADMPAADPQVRAELEEEAARLGWQALHDQLAAVDPESAARIHPNDPQRLTRALEVYRVSGLTMTAHRQRQLAQSTEAGASGRSQLPYTVANLAIAPANRQVLHQRIAQRFTQMLEQGFIDEVVALRSRSDLHAGLPSIRAVGYRQVWDHLDGKLTSAEMQERGIIATRQLAKRQFTWLRSWADLQWLDSLDCDNLPRALKYLGTISILSLEHHHHHH | not soluble |
| MGSDKIHHHHHHMALVKLQTQHFRNLLSAPVEFSPSFNLLYGANGSGKTSVLEAIGYLGLGRSFRVSRHQAVVAHGQSKLTVFGALDSGLLAQESSEKVEHRIGISRDVSLKETQLRVDGEAVRSLSFLAMHLPVSVIDPGVFDIVAGGPGKRRQFLDWLVFHVEPSFSSLWQQVQRVTSQRNQMLRNGRLDESLMRVWDSQYGALAESLSDIRETVFQRFKIAFESVLAELDAPWVEGLKMDFYPGWDRSTALTEVLVNHREQERRMGHTLYGPNRADIRLKFGGRPVAETFSRGQQKTLVILMKIAQGKVLSDLGKQVTFLLDDINAELDVRHRVMLARNLQELRCQVFITSIEHPEPDTLWHDGDTPEYRMFHVEHGQLTEE | not soluble |
| MVHVKDVLADQLLANANDPSWYMPFSDAVKDLSEREAFWKPNEECNSIAEIVQHLLYWNSTWQTRYKESHVNAVPAIGDNNKSFMLSDNQTFDELREKLLEKLLQWQTLINEEKVESDVVGFPVSAKWWEVLANVTTHNAYHIGQIIYIRKLQQSFDNK | not soluble |
| MPFVVIITGIPGVGKSTITKLALQRTRAKFKLINFGDLMFEEALKLKLVKHRDEMRKLPLEVQRELQMNAAKKIAEMAKNYPILLDTHATIKTPHGYLLGLPYEVIKILNPNFIVIIEATPSEILGRRLRDLKRDRDVETEEQIQRHQDLNRAAAITYAMHSNALIKIIENHEDKGLEEAVNELVKILDLAVKEYA | soluble |
| MTILSVSPNKREDLSMKRKIALAMVLAMTASMAQPVLAADSKTTLDVIISQYGTQTQTWWTQFEKDFEAENPDIDLNVEIVSWNDLYTKVNTLVANNNAPDILNIDVLADYVADDLLMPATEYASEDLQAKFFPAFWEASTIDDTVYALPILASCRALFYNKDILDEAGATVPTTWAEVQETAQKIKDKFGDDVYPWGIDMTTDEGQAAFSYYTWNNGGGFVDENGDWALNSDKNVEALNFAIGLVNDGYTNSDPANETRYDLQDMFGAGKVAMMIGPNNIPTYLSDGGYDINYDVTTIPANEGCDSVAMGVCDRLEVFKDDSAEDQEARTAAISKFFDFFYDDERYADYMVFEGFLPTTQTAADLLAKDDDTFASWIDILQSCNFYPATKTEWADVKQGVIEVEQNALLGDDVQTLLDDLQADIAG | not soluble |
| MSLDPRKVNELRAFVKMCKQDPSVLHTEEMRFLREWVESMGGKVPPATQKAKSEENTKEEKPDSKKVEEDLKADEPSSEESDLEIDKEGVIEPDTDAPQEMGDENAEITEEMMDQANDKKVAAIEALNDGELQKAIDLFTDAIKLNPRLAILYAKRASVFVKLQKPNAAIRDCDRAIEINPDSAQPYKWRGKAHRLLGHWEEAAHDLALACKLDYDEDASAMLKEVQPRAQKIAEHRRKYERKREEREIKERIERVKKAREEHERAQREEEARRQSGAQYGSFPGGFPGGMPGNFPGGMPGMGGGMPGMAGMPGLNEILSDPEVLAAMQDPEVMVAFQDVAQNPANMSKYQSNPKVMNLISKLSAKFGGQAEGHHHHHH | soluble |
| SGGRRWNWVQSWPVWKYFKEYFPICLVKTQDLDPGHNYIFGFHPHGIFVPGAFGNFCTKYSDFKKLFPGFTSYLHVAKIWFCFPLFREYLMSNGPVSVSKESLSHVLSKDGGGNVSIIVLGGAKEALEAHPGTFTLCIRQRKGFVKMALTHGASLVPVFSFGENDLYKQINNPKGSWLRTIQDAMYDSMGVALPLIYARGIFQHYFGIMPYRKLIYTVVGRPIPVQQILNPTSEQIEELHQTYLEELKKLFNEHKGKYGIPEHETLVFK | soluble |
| GYQCQHNLNYWRFGDYLGIGCGSHGKLSFADGRIIRTTKVKHPRGYLAAYQNMVKPYLHTEQLVADEDRPFEFFMNRFRLMEACPKQDYVDTTGLPLSTIQDTIDWALEMGYLSETETHWQITEKGKLFLNDLLEAFMAEEDEE | not soluble |
| MFAVDPQMNQTVNSPKGQLLLRTLAMPADTNANGDIFGGWIMSQLDLAGGILAKEISCGRIVTVSVSSITFKKPVKVGDVVCCYGECTKIGRTSMSINLEVWVKPVKEEGVGERFQVCEATFNYVAIDANGRPRAISLSNGSQKSSLEHHHHHH | not soluble |
| RPLQGEATNLTDNTIFRIRQLKGTWNLLIIDSGKCEEYCQEKLYTLRQVRLAQHVDKDKVQRVWLINDDIRPDQETIDKFKGTRLVLANGKDLLKEFPAENKREDHIYVVDPMGNLMMRYPRNADPRKMVGDLKRLLKLSHLEH | not soluble |
| MGSDKIHHHHHHMQDLNDIALFAAVVKHNGFSAAARDLNVPKSKLSKHVARLEEQLGVRLLERSTRKLRMTEVGRIFYEHAQGLLDGVAAAEAEIAAVRAEPTGVVRLACPIGFTPMLADILPAFHRRYPGVRLLITASNRRIDLIEERIDVALRARDQLDTDSQLIVRKFGEVRQRLAASPTLLARLGEITTDNLSQMPTLSMNEQHPNDVWRLVHATGGAIEIAHRPVVGCSDFLILERAAIEGMGIALLPDHICERAFRTGALVPVLPEWTSGNVMVHLVFPSRHGLLPATRALIDFLAENLIKALERCREVDPRPAASFEI | not soluble |
| MAHHHHHHMWNGPTYAIARVRWDSVVRTFSACGTSLASPQRRFSSWFEEQPGGGQHNVEDKAVAAFAVNADRLEKGKTIIKKKAHGIPFHISDAEAVDNVCRHHGAAVEIHSVERFLMPFWLTETSAAGTFKADLLQHDRMNITQPHYFLWLEGPRYQFNYPFGEYMPMNQVSASYREPLKVVERCLTGTHVPSMLLSRFELLHEVEKMEHRPTVIPFTMSTVTALSVIERRVNRRVVLDRIDRELRKFHGSFLKSNVSVMSLQMVASSIRPAFLPLFKLTVSTISHSTPVPAFICGATGKVVGPVLHVQRRKRLGLAAAAAVGTLLSLAPLVEPGVATAAALAVVASSGFVQQAVQRARFVREQAHQMAQLKSVGVLNLVADSTGYRWTPEEEEKEEYEYREELRRQARARDAFEQRVKEEAARDRVRAHGTHFDPKNRRRTDLADVDPRGYYELLGLKGKEFSATAKDITKAFREAVRIHHPDVHPEGEAENKKRHMQRIIEAYKILHNPKTKKFYDSGEMSGKSQETS | not soluble |
